Assays:
[1] = target: GM-CSF receptor on TF-1 cells (human (endogenous in TF-1)) (UniProt P32927); assay: radioligand binding
[2] = target: GM-CSF receptor on human CD34+ cord blood cells (human (endogenous in CD34+ cord blood cells)) (UniProt P32927); assay: radioligand binding

percent by which the IC50 is less than for full-length GM-CSF [1] [%]	KD of the high-affinity site [2] [nM]	Substance
88		unlabeled DPP4-truncated recombinant human GM-CSF (ligand)
	0.734	DPP4-truncated recombinant human [125I]-GM-CSF (ligand)

— PMC3742313
